Biological target: spike glycoprotein of live SARS-CoV-2 (isolate USA-WA1/2020) (SARS-CoV-2, UniProt P0DTC2 14-1273)
Experiment: cell-based or functional assay

B1: S2E12 (antibody, V domains shown)
VH: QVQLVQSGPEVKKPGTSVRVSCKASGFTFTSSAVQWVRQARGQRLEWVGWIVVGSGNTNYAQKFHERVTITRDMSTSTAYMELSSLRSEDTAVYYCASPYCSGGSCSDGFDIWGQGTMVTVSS
VL: DIVLTQTPGTLSLSPGERATLSCRASQSVSSSYLAWYQQKPGQAPRLLIYGASSRATGIPDRFSGSGSGTDFTLTISRLEPEDFAVYYCQQYVGLTGWTFGQGTKVEIK
EC50 (live SARS-CoV-2 neutralisation): 5 ng/mL | IC50 (live SARS-CoV-2 neutralisation): 5.41 ng/mL
